These results are taken from article PMC7082139, “Molecular Mechanisms of Phosphate Stress Activation of Pseudomonas aeruginosa Quorum Sensing Systems”.

The target of one data set is T1, PhoB (Pseudomonas aeruginosa PAO1, UniProt P23620 1-229).
T1 sequence: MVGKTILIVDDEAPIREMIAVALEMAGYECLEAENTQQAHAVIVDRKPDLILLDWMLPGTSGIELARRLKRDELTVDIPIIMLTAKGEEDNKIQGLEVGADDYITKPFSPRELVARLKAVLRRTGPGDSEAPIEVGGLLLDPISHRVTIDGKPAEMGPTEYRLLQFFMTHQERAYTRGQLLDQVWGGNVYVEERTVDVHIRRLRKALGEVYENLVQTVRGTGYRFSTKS
Put plainly: EMSA. Conditions: protein: recombinant; tags: C-terminal His (pET-28b, NcoI-XhoI); chain copies: 2; label: biotin 3'-end; blunt. In general terms: In EMSA bound probe runs differently from free probe, usually more slowly.

In a further data set the target is PhoB(D54A) (Pseudomonas aeruginosa PAO1, UniProt P23620 1-229, D54A). Put plainly: EMSA. Conditions: protein: recombinant; tags: C-terminal His (pET-28b); chain copies: 2; label: biotin 3'-end; blunt.
The target of another data set is RsaL (Pseudomonas aeruginosa PAO1, UniProt Q9X7H4 1-80). Put plainly: EMSA; RsaL-specific shift; displaced by increasing PhoB (competes at 3 uM). As to conditions: protein: recombinant; tags: C-terminal His (pET-28b); chain copies: 2; label: biotin 3'-end; blunt.

B1: P2+P3 (dsDNA)
DNA 1: GTTATAAAATTATGAAATTTGCATAAATTCTTCAGCTTCCTATTTGGAGGAAGTGAAG
DNA 2: CTTCACTTCCTCCAAATAGGAAGCTGAAGAATTTATGCAAATTTCATAATTTTATAAC
As for B1, the binding result in the data set with PhoB is “binds”.

B2: P1+P2 (dsDNA)
DNA 1: TAGCAAGGGTCCGGGTTCACCGAAATCTATCTCATTTGCTAGTTATAAAATTATGAAAT
DNA 2: ATTTCATAATTTTATAACTAGCAAATGAGATAGATTTCGGTGAACCCGGACCCTTGCTA
Regarding B2, in the data set with PhoB, the binding result is on record as “binds”.

B3: P3 (downstream of pho box) (dsDNA)
DNA 1: TTGCATAAATTCTTCAGCTTCCTATTTGGAGGAAGTGAAG
DNA 2: CTTCACTTCCTCCAAATAGGAAGCTGAAGAATTTATGCAA
Take B3: the binding result with PhoB is “no binding”.

B4: P1 (upstream of pho box) (dsDNA)
DNA 1: TAGCAAGGGTCCGGGTTCACCGAAATCTATCTCATTTGCTA
DNA 2: TAGCAAATGAGATAGATTTCGGTGAACCCGGACCCTTGCTA
Consider B4, for which, in the data set with PhoB, the binding result is listed as “no binding”.

B5: lasI promoter (dsDNA)
DNA 1: TGCTCTGATCTTTTCGGACGTTTCTTCGAGCCTAGCAAGGGTCCGGGTTCACCGAAATCTATCTCATTTGCTAGTTATAAAATTATGAAATTTGCATAAATTCTTCAGCTTCCTATTTGGAGGAAGTGAAG
DNA 2: CTTCACTTCCTCCAAATAGGAAGCTGAAGAATTTATGCAAATTTCATAATTTTATAACTAGCAAATGAGATAGATTTCGGTGAACCCGGACCCTTGCTAGGCTCGAAGAAACGTCCGAAAAGATCAGAGCA
Turning to B5, the binding result with PhoB(D54A), with PhoB and with RsaL was “binds” in each case.
